Laboratory results published in article PMC5999986.

Molecular target: DosR (DosRwt) (Mycobacterium tuberculosis, UniProt P9WMF9 1-217)
Test: EMSA; 4, 8, 16 uM protein; 20 mM MgCl2; […]; ITC: 20 mM Tris pH 8.0, 200 mM NaCl, 25 C, […]
Settings: protein: recombinant; tags: His6 (N-terminal from pET28a NdeI/HindIII; C-terminal His6 encoded by primer PTD2 in pT7-dosR); chain copies: 2; label: none (ethidium bromide stain); blunt

B1: 20-bp DosR regulon consensus DNA (EM1/EM2) (dsDNA)
DNA 1: TTGGGGACTAAAGTCCCTAA
DNA 2: TTAGGGACTTTAGTCCCCAA
binding result: binds
